Square brackets hold non-standard residues; d marks the D form. Primed or numbered codes have the meaning given here. Phe(4-CF3) = N[C@@H](Cc1ccc(C(F)(F)F)cc1)C(=O)O; dPro(cis-4-NH2) = N[C@H]1CN[C@@H](C(=O)O)C1; Pro(3S-OH) = O=C(O)[C@H]1NCC[C@@H]1O; hArg = N=C(N)NCCCC[C@H](N)C(=O)O; Tic = O=C(O)[C@@H]1Cc2ccccc2CN1; dTic = O=C(O)[C@H]1Cc2ccccc2CN1; Cha = N[C@@H](CC1CCCCC1)C(=O)O; aThr = C[C@H](O)[C@H](N)C(=O)O; Orn(A41) = not defined here; Orn(A56) = not defined here; Orn(Ar2) = not defined here; Orn(Ar4) = not defined here; Orn(Ar7) = not defined here; dOrn = NCCC[C@@H](N)C(=O)O; hSer = N[C@@H](CCO)C(=O)O; Nle = CCCC[C@H](N)C(=O)O; Orn = NCCC[C@H](N)C(=O)O; dPip′ = not defined here; A56 = not defined here; Ar7 = not defined here; Tiq = not defined here

The experiment concerns the target chemokine receptor CXCR7 (UniProt P25106 1-362, limits assumed). The experiment is described as follows: cell-based or functional assay.

chemokine receptor CXCR7, sequence (P25106 whole entry): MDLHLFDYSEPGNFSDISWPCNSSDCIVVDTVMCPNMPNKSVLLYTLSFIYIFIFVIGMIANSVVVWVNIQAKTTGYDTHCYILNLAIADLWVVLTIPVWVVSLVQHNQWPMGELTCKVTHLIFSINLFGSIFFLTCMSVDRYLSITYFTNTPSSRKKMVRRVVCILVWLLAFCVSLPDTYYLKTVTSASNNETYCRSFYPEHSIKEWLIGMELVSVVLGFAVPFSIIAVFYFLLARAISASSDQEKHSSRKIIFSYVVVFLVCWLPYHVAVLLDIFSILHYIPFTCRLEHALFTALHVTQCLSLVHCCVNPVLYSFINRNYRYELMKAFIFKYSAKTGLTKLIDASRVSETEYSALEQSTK

B1: cyclo(-Ile-^DArg-Arg-Trp-^DTic-Thr-) (peptide)
peptide: cyclo(I[dR]RW[dTic]T)
SMILES: CC[C@H](C)[C@@H]1NC(=O)[C@H]([C@@H](C)O)NC(=O)[C@H]2Cc3ccccc3CN2C(=O)[C@H](Cc2c[nH]c3ccccc23)NC(=O)[C@H](CCCNC(=N)N)NC(=O)[C@@H](CCCNC(=N)N)NC1=O
For the molecule B1, the “β-Arrestin EC50” value is 0.0142 µM.

B2: cyclo(-Ile-^DOrn-Arg-Trp-^DPro-Thr-) (peptide)
peptide: cyclo(I[dOrn]RW[dP]T)
SMILES: CC[C@H](C)[C@@H]1NC(=O)[C@H]([C@@H](C)O)NC(=O)[C@H]2CCCN2C(=O)[C@H](Cc2c[nH]c3ccccc23)NC(=O)[C@H](CCCNC(=N)N)NC(=O)[C@@H](CCCN)NC1=O
As for B2, the “β-Arrestin EC50” value stood at 0.0233 µM.

B3: cyclo(-Ile-^DArg-Arg-Phe(4CF3)-^DPro-Thr-) (peptide)
peptide: cyclo(I[dR]R[Phe(4-CF3)][dP]T)
SMILES: CC[C@H](C)[C@@H]1NC(=O)[C@H]([C@@H](C)O)NC(=O)[C@H]2CCCN2C(=O)[C@H](Cc2ccc(C(F)(F)F)cc2)NC(=O)[C@H](CCCNC(=N)N)NC(=O)[C@@H](CCCNC(=N)N)NC1=O
As to B3, the “β-Arrestin EC50” value worked out at 0.0045 µM.

B4: cyclo(-Ile-^DArg-Orn-Trp-^DPro-Thr-) (peptide)
peptide: cyclo(I[dR][Orn]W[dP]T)
SMILES: CC[C@H](C)[C@@H]1NC(=O)[C@H]([C@@H](C)O)NC(=O)[C@H]2CCCN2C(=O)[C@H](Cc2c[nH]c3ccccc23)NC(=O)[C@H](CCCN)NC(=O)[C@@H](CCCNC(=N)N)NC1=O
For the molecule B4, the “β-Arrestin EC50” value worked out at 0.817 µM.

B5: cyclo(-Trp-^DPhe-Trp-Orn(A56)-^DPip-Pro((3S)OH)-) (peptide)
peptide: cyclo(W[dF]W[Orn](A56)[dPip′][Pro(3S-OH)])
modifications: reading uncertain; also: printed as cyclo(-Trp-^DPhe-Trp-Orn(A56)-^DPip-Pro((3S)OH)-)
As to B5, the “β-Arrestin EC50” value is 0.014 µM.

B6: cyclo(-Ile-^DThr-Arg-Trp-^DPro-Thr-) (peptide)
peptide: cyclo(I[dT]RW[dP]T)
SMILES: CC[C@H](C)[C@@H]1NC(=O)[C@H]([C@@H](C)O)NC(=O)[C@H]2CCCN2C(=O)[C@H](Cc2c[nH]c3ccccc23)NC(=O)[C@H](CCCNC(=N)N)NC(=O)[C@@H]([C@H](C)O)NC1=O
Regarding B6, the “β-Arrestin EC50” value came to 0.0532 µM.

B7: cyclo(-Orn(Ar2)-^DPhe-Trp-Arg-^DPro((4R)NH2)-Tic-) (peptide)
peptide: cyclo([Orn(Ar2)][dF]WR[dPro(cis-4-NH2)][Tic])
modifications: reading uncertain; also: printed as cyclo(-Orn(Ar2)-^DPhe-Trp-Arg-^DPro((4R)NH2)-Tic-)
As to B7, the “β-Arrestin EC50” value came out at 0.209 µM.
With cyclo([Ala(1Pyraz)][dF]WR[dPro(cis-4-NH2)][Tic]) [cyclo(-Ala(1Pyraz)-^DPhe-Trp-Arg-^DPro((4R)NH2)-Tic-)] the figure was 0.0299 µM; with cyclo(I[dR][Orn(A41)]W[dP]T) (reading uncertain; also: printed as cyclo(-Ile-^DArg-Orn(A41)-Trp-^DPro-Thr-)) [cyclo(-Ile-^DArg-Orn(A41)-Trp-^DPro-Thr-)], 0.518 µM.

B8: cyclo(-Trp-^DPhe-Trp-Orn(Ar7)-^DPro((4R)NH2)-Tic-) (peptide)
peptide: cyclo(W[dF]W[Orn](Ar7)[dPro(cis-4-NH2)][Tic])
modifications: reading uncertain; also: printed as cyclo(-Trp-^DPhe-Trp-Orn(Ar7)-^DPro((4R)NH2)-Tic-)
Consider B8, for which the “β-Arrestin EC50” value amounted to 0.145 µM.

B9: cyclo(-Ile-^DArg-Arg-Trp-^DPro-alloThr-) (peptide)
peptide: cyclo(I[dR]RW[dP][aThr])
SMILES: CC[C@H](C)[C@@H]1NC(=O)[C@H]([C@H](C)O)NC(=O)[C@H]2CCCN2C(=O)[C@H](Cc2c[nH]c3ccccc23)NC(=O)[C@H](CCCNC(=N)N)NC(=O)[C@@H](CCCNC(=N)N)NC1=O
B9: the “β-Arrestin EC50” value is 0.292 µM.

B10: cyclo(-Trp-^DPhe-Trp-Orn(A56)-^DPro((4R)NH2)-Tic-) (peptide)
peptide: cyclo(W[dF]W[Orn](A56)[dPro(cis-4-NH2)][Tic])
modifications: reading uncertain; also: printed as cyclo(-Trp-^DPhe-Trp-Orn(A56)-^DPro((4R)NH2)-Tic-)
On to B10, for which the “β-Arrestin EC50” value came to 0.0334 µM.
Take cyclo(I[dR][Orn(Ar4)]W[dP]T) (reading uncertain; also: printed as cyclo(-Ile-^DArg-Orn(Ar4)-Trp-^DPro-Thr-)) [cyclo(-Ile-^DArg-Orn(Ar4)-Trp-^DPro-Thr-)]: the “β-Arrestin EC50” value worked out at 0.0046 µM.

B11: cyclo(-Ile-^DArg-hArg-Trp-^DPro-Thr-) (peptide)
peptide: cyclo(I[dR][hArg]W[dP]T)
SMILES: CC[C@H](C)[C@@H]1NC(=O)[C@H]([C@@H](C)O)NC(=O)[C@H]2CCCN2C(=O)[C@H](Cc2c[nH]c3ccccc23)NC(=O)[C@H](CCCCNC(=N)N)NC(=O)[C@@H](CCCNC(=N)N)NC1=O
As for B11, the “β-Arrestin EC50” value is 0.011 µM.

B12: cyclo(-Cha-^DArg-Arg-Trp-^DPro-Thr-) (peptide)
peptide: cyclo([Cha][dR]RW[dP]T)
SMILES: C[C@@H](O)[C@@H]1NC(=O)[C@H]2CCCN2C(=O)[C@H](Cc2c[nH]c3ccccc23)NC(=O)[C@H](CCCNC(=N)N)NC(=O)[C@@H](CCCNC(=N)N)NC(=O)[C@H](CC2CCCCC2)NC1=O
With B12, the “β-Arrestin EC50” value was 0.0377 µM.

B13: cyclo(-Leu-^DArg-Arg-Trp-^DPro-Thr-) (peptide)
peptide: cyclo(L[dR]RW[dP]T)
SMILES: CC(C)C[C@@H]1NC(=O)[C@H]([C@@H](C)O)NC(=O)[C@H]2CCCN2C(=O)[C@H](Cc2c[nH]c3ccccc23)NC(=O)[C@H](CCCNC(=N)N)NC(=O)[C@@H](CCCNC(=N)N)NC1=O
In the case of B13, the “β-Arrestin EC50” value is 0.0053 µM.
With cyclo(I[dR][Orn(A56)]W[dP]T) (reading uncertain; also: printed as cyclo(-Ile-^DArg-Orn(A56)-Trp-^DPro-Thr-)) [cyclo(-Ile-^DArg-Orn(A56)-Trp-^DPro-Thr-)] the figure was 0.0032 µM.

B14: cyclo(-Ile-^DArg-Arg-Trp-^DPro-hSer-) (peptide)
peptide: cyclo(I[dR]RW[dP][hSer])
SMILES: CC[C@H](C)[C@@H]1NC(=O)[C@H](CCO)NC(=O)[C@H]2CCCN2C(=O)[C@H](Cc2c[nH]c3ccccc23)NC(=O)[C@H](CCCNC(=N)N)NC(=O)[C@@H](CCCNC(=N)N)NC1=O
Regarding B14, the “β-Arrestin EC50” value is 0.347 µM.

B15: cyclo(-Nle-^DArg-Arg-Trp-^DPro-Thr-) (peptide)
peptide: cyclo([Nle][dR]RW[dP]T)
SMILES: CCCC[C@@H]1NC(=O)[C@H]([C@@H](C)O)NC(=O)[C@H]2CCCN2C(=O)[C@H](Cc2c[nH]c3ccccc23)NC(=O)[C@H](CCCNC(=N)N)NC(=O)[C@@H](CCCNC(=N)N)NC1=O
Take B15: the “β-Arrestin EC50” value was found to be 0.0028 µM.

B16: cyclo(-Ile-^DArg-Arg-Phe-^DPro-Thr-) (peptide)
peptide: cyclo(I[dR]RF[dP]T)
SMILES: CC[C@H](C)[C@@H]1NC(=O)[C@H]([C@@H](C)O)NC(=O)[C@H]2CCCN2C(=O)[C@H](Cc2ccccc2)NC(=O)[C@H](CCCNC(=N)N)NC(=O)[C@@H](CCCNC(=N)N)NC1=O
Consider B16, for which the “β-Arrestin EC50” value worked out at 0.0464 µM.
For cyclo(I[dR][Orn(Ar2)]W[dP]T) (reading uncertain; also: printed as cyclo(-Ile-^DArg-Orn(Ar2)-Trp-^DPro-Thr-)) [cyclo(-Ile-^DArg-Orn(Ar2)-Trp-^DPro-Thr-)], the “β-Arrestin EC50” value turned out to be 0.453 µM.

B17: cyclo(-Trp-^DPhe-Trp-Orn(A56)-^DPro((4R)NH2)-Tiq-) (peptide)
peptide: cyclo(W[dF]W[Orn](A56)[dPro(cis-4-NH2)][Tiq])
modifications: reading uncertain; also: printed as cyclo(-Trp-^DPhe-Trp-Orn(A56)-^DPro((4R)NH2)-Tiq-)
As for B17, the “β-Arrestin EC50” value was determined as 0.0469 µM.

B18: cyclo(-Orn(A56)-^DPhe-Trp-Arg-^DPro((4R)NH2)-Tic-) (peptide)
peptide: cyclo([Orn(A56)][dF]WR[dPro(cis-4-NH2)][Tic])
modifications: reading uncertain; also: printed as cyclo(-Orn(A56)-^DPhe-Trp-Arg-^DPro((4R)NH2)-Tic-)
Regarding B18, the “β-Arrestin EC50” value was 0.181 µM.
As for cyclo(I[dR][Orn(Ar7)]W[dP]T) (reading uncertain; also: printed as cyclo(-Ile-^DArg-Orn(Ar7)-Trp-^DPro-Thr-)) [cyclo(-Ile-^DArg-Orn(Ar7)-Trp-^DPro-Thr-)], the “β-Arrestin EC50” value came to 0.337 µM.
The figure for cyclo([Ala(Tet)][dF]WR[dPro(cis-4-NH2)][Tic]) [cyclo(-Ala(Tet)-^DPhe-Trp-Arg-^DPro((4R)NH2)-Tic-)] is 0.0281 µM.
